Experimental data from IntAct's records for PubMed 18676636.

B1: Forkhead box protein C1 (Homo sapiens), Q12948 (parent)
chain: MQARYSVSSPNSLGVVPYLGGEQSYYRAAAAAAGGGYTAMPAPMSVYSHPAHAEQYPGGMARAYGPYTPQPQPKDMVKPPYSYIALITMAIQNAPDKKITLNGIYQFIMDRFPFYRDNKQGWQNSIRHNLSLNECFVKVPRDDKKPGKGSYWTLDPDSYNMFENGSFLRRRRRFKKKDAVKDKEEKDRLHLKEPPPPGRQPPPAPPEQADGNAPGPQPPPVRIQDIKTENGTCPSPPQPLSPAAALGSGSAAAVPKIESPDSSSSSLSSGSSPPGSLPSARPLSLDGADSAPPPPAPSAPPPHHSQGFSVDNIMTSLRGSPQSAAAELSSGLLASAAASSRAGIAPPLALGAYSPGQSSLYSSPCSQTSSAGSSGGGGGGAGAAGGAGGAGTYHCNLQAMSLYAAGERGGHLQGAPGGAGGSAVDDPLPDYSLPPVTSSSSSSLSHGGGGGGGGGGQEAGHHPAAHQGRLTSWYLNQAGGDLGHLASAAAAAAAAGYPGQQQNFHSVREMFESQRIGLNNSPVNGNSSCQMAFPSSQSLYRTSGAFVYDCSKF

Variants of: B1
Conditions: with C1QBP

Variant	effect of a mutation on the interaction
MQARYSVSSPNSLGVVPYLGGEQSYYRAAAAAAGGGYTAMPAPMSVYSHPAHAEQYPGGMARAYGPYTPQPQPKDMVKPPYSYIALITMAIQNAPDKKITLNGIYQFIMDRSPFYRDNKQGWQNSIRHNLSLNECFVKVPRDDKKPGKGSYWTLDPDSYNMFENGSFLRRRRRFKKKDAVKDKEEKDRLHLKEPPPPGRQPPPAPPEQADGNAPGPQPPPVRIQDIKTENGTCPSPPQPLSPAAALGSGSAAAVPKIESPDSSSSSLSSGSSPPGSLPSARPLSLDGADSAPPPPAPSAPPPHHSQGFSVDNIMTSLRGSPQSAAAELSSGLLASAAASSRAGIAPPLALGAYSPGQSSLYSSPCSQTSSAGSSGGGGGGAGAAGGAGGAGTYHCNLQAMSLYAAGERGGHLQGAPGGAGGSAVDDPLPDYSLPPVTSSSSSSLSHGGGGGGGGGGQEAGHHPAAHQGRLTSWYLNQAGGDLGHLASAAAAAAAAGYPGQQQNFHSVREMFESQRIGLNNSPVNGNSSCQMAFPSSQSLYRTSGAFVYDCSKF [F112S]	disrupting interaction
